Reference: patent US20170157251A1, “Bi-Specific Monovalent Diabodies That are Capable of Binding CD19 and CD3, and Uses Thereof” (MacroGenics, Inc., priority 2015, published 2017)

Columns and labels:
human blood leukocytes = assay: Flow cytometry binding to human blood leukocytes (B and T cells); settings: 0.005 to 80 nM
Experimental: (§1) Following incubation, binding to leukocytes was detected using a biotinylated anti-E-coil/K-coil (EK) mAb, which recognizes the EK coil heterodimerization region of the DART proteins and streptavidin-PE. […] Similarly, CD20 was used as a B cell marker instead of CD19. Therefore, in this study, the CD4+ and CD8+ gated events represent the T cell population and CD20+ gated events represent the B cell population.

[1] = test system: cynomolgus monkey blood leukocytes; assay: Flow cytometry binding to cynomolgus monkey blood leukocytes (B and T cells); settings: 0.005 to 80 nM
Experimental: as §1

B1: Control DART 2: control DART capable of binding to fluorescein and CD19 (protein)
chain 1: ENVLTQSPATLSVTPGEKATITCRASQSVSYMHWYQQKPGQAPRLLIYDASNRASGVPSRFSGSGSGTDHTLTISSLEAEDAATYYCFQGSVYPFTFGQGTKLEIKGGGSGGGGEVKLDETGGGLVQPGRPMKLSCVASGFTFSDYWMNWVRQSPEKGLEWVAQIRNKPYNYETYYSDSVKGRFTISRDDSKSSVYLQMNNLRVEDMGIYYCTGSYYGMDYWGQGTSVTVSSASTKGEVAACEKEVAALEKEVAALEKEVAALEKGGGDKTHTCPPCPAPEAAGGPSVFLFPPKPKDTLMISRTPEVTCVVVDVSHEDPEVKFNWYVDGVEVHNAKTKPREEQYNSTYRVVSVLTVLHQDWLNGKEYKCKVSNKALPAPIEKTISKAKGQPREPQVYTLPPSREEMTKNQVSLWCLVKGFYPSDIAVEWESNGQPENNYKTTPPVLDSDGSFFLYSKLTVDKSRWQQGNVFSCSVMHEALHNHYTQKSLSLSPGK
chain 2: QAVVTQEPSLTVSPGGTVTLTCRSSTGAVTTSNYANWVQQKPGQAPRGLIGGTNKRAPWTPARFSGSLLGGKAALTITGAQAEDEADYYCALWYSNLWVFGGGTKLTVLGGGGSGGGGEVKLDETGGGLVQPGRPMKLSCVASGFTFSDYWMNWVRQSPEKGLEWVAQIRNKPYNYETYYSDSVKGRFTISRDDSKSSVYLQMNNLRVEDMGIYYCTGSYYGMDYWGQGTSVTVSSASTKGKVAACKEKVAALKEKVAALKEKVAALKE
modifications: Amino Acid Sequence of the First Polypeptide Chain of Control DART 2; Amino Acid Sequence of the Second Polypeptide Chain of Control DART 2
binding to B cells (CD20+) and T cells (CD4+ and CD8+) (human blood leukocytes): only mono-specific binding to B cells | binding to B cells (CD20+) and T cells (CD4+ and CD8+) [1]: only mono-specific binding to B cells
